From US20250313602A1 (published 2025)

Key:
[1] = target: T1, human IL-2Rβ protein (10696-H05H, Sino Biological) (human, UniProt P14784 27-239); assay: ELISA
T1 chain: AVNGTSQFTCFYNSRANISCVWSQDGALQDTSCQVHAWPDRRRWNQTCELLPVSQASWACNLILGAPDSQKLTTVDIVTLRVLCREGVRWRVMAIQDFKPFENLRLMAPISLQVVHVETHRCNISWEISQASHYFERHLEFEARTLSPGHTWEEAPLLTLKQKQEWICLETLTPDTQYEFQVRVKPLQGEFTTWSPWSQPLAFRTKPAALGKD

[2] = target: T2, human IL-2Rα protein (10165-H08H, Sino Biological) (human, UniProt P01589 22-213); assay: ELISA
T2 chain: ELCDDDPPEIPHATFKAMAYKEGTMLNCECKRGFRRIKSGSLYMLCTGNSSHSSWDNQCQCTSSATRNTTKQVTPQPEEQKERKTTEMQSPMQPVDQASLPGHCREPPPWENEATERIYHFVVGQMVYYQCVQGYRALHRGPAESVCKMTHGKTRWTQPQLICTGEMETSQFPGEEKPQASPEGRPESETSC

- EC50 [1]: 94 nM
- EC50 [2]: 3.06 nM
B1: IL-2-Fc fusion protein (Fc fusion)
chain: APTSSSTKKTQLQLEHLLLDLQMILNGINNYKNPKLTAMLTFKFYMPKKATELKHLQCLEEELKPLEEVLNLAQSKNFHFDPRDVVSNINVFVLELKGSETTFMCEYADETATIVEFLNRWITFCQSIISTLTGGGGSGGGGSGGGGSEPKSCDKTHTCPPCPAPEAAGGPSVFLFPPKPKDTLYITREPEVTCVVVDVSHEDPEVKFNWYVDGVEVHNAKTKPREEQYNSTYRVVSVLTVLHQDWLNGKEYKCKVSNKALPAPIEKTISKAKGQPREPQVYTLPPSREEMTKNQVSLTCLVKGFYPSDIAVEWESNGQPENNYKTTPPVLDSDGSFFLYSKLTVDKSRWQQGNVFSCSVMHEALHNHYTQKSLSLSPK
